Experimental findings from paper PMC3524375 are described below.

The target in this test is NADPH-cytochrome P450 reductase (UniProt P00388).
UniProt P00388, sequence (P00388 whole entry): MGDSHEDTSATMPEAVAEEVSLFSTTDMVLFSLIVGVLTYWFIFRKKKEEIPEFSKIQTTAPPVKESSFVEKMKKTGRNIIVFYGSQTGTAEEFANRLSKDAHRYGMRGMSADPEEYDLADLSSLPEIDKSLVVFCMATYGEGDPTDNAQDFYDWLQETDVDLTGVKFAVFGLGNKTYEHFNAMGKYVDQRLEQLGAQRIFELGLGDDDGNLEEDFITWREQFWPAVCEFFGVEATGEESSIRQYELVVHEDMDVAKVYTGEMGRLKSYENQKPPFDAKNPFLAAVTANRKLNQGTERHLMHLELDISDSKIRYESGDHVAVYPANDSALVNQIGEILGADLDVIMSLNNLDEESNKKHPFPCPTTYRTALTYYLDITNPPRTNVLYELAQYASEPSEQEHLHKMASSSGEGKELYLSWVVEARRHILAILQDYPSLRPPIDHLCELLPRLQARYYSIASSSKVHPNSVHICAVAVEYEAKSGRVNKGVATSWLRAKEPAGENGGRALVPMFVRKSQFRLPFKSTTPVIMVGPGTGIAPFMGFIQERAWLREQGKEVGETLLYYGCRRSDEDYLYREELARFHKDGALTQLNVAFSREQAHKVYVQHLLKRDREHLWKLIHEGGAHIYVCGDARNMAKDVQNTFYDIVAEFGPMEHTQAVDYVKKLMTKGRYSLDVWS

As for “human cytochrome P450 3A4, wild type, untreated (from UniProt P08684 1-503) (enzyme)”, the % of CPR-dependent versus dithionite-dependent reduced P450-CO spectrum came out at 88%.

“CYP3A4 Y430V mutant (from UniProt P08684 1-503) (enzyme)” registered a % of CPR-dependent versus dithionite-dependent reduced P450-CO spectrum of 22%. The figure for “CYP3A4 Y430F mutant (from UniProt P08684 1-503) (enzyme)” is 41%.
